Results from patent CN111378040A (UNIV SHENZHEN, dated 2020).
Positions count from the first letter of the chain named.

B1: B22嵌合抗体 (antibody, human IgG1, kappa, V domains shown)
VH: QVQLQQPGAALVKPGASVKLSCKASGYTFTNYWIQWMKQRPGQGLEWIGEINPSNGRTDYNEKFKNRATLTVDNSSTTAYMQLSSLTSEDSAVYYCANYRPGYWGQGTSVTVSS
VL: DIVMTQSQKFMSTSVGDRVSVTCKASQNVGTNVAWFQQKPGQSPKPLIYLASYRYSGVPDRFTGSGSGTDFTLTISNVQSEDLAEYFCQQYNSYPLTFGGGTNLEIKR
notes: Chimeric antibody expressed in 293F cells and purified on Protein A; also called B22抗体; SA120-2
B2: A12嵌合抗体 (antibody, human IgG1, kappa, V domains shown)
VH: QVQLQQSGPELVKPGASVRMSCKAAGYTITSYLMHWVKQRPGQDLEWIGYINPYNDGTKYNEKFKDKATLTSDKSSSTAYMELSSLTSEDSAVYYCARSDVYYGVRFAYWGQGTLVTVSA
VL: DIVLTQSPAIMSASPGEKVTMTCSASSSVSYMHWYQQKSGTSPKRWIYDTSKLASGVPARFSGSGSGTSYSLTISSMEAEDAAIYYCQQWSSNPPTFGAGTKLELKR
notes: Chimeric antibody expressed in 293F cells and purified on Protein A; also called A12抗体; ROR2-A12
B3: B30嵌合抗体 (antibody, human IgG1, kappa, V domains shown)
VH: B2 VH with I29F, M34I
VL: DIVLTQSPVIMSASPGEKVTMTCSASSSISYMYWYQQKPGSSPRLLIYDTSILASGVPVRFSGSGSGTSYSLTISRMEAEDAATYYCQQWSSYPFTFGSGTKLEIKR
notes: Chimeric antibody expressed in 293F cells and purified on Protein A; also called B30抗体; ROR2-B30

Target: T1, 带有His标签的人源的ROR2胞外端 (human, UniProt Q01974 34-403)
T1 construct: extracellular domain; Denatured cell lysate in an immunoblot; it is put last only for want of a statement; also called human ROR2ex; humanROR2ex; not shown: His tag
Assay: immunoblot, lysate of 293T-ROR2-KO cells transfected with His-tagged human ROR2ex, 5ug/ml

T1 sequence (Q01974 34-403): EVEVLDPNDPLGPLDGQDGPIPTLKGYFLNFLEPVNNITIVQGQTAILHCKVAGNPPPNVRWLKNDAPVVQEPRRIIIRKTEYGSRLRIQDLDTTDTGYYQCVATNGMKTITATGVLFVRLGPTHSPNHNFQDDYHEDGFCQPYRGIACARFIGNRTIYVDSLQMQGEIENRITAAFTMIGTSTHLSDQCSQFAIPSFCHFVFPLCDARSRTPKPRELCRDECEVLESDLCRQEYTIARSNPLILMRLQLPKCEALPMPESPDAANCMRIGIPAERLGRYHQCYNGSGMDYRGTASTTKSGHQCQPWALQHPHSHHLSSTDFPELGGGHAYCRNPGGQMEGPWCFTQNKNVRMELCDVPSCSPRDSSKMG

Question: Does B1 bind?
Answer: Result: binds

Question: Does B2 bind?
Answer: Result: binds

Question: Does B3 bind?
Answer: Result: binds

Target: T2, 内源性的ROR2 (293T细胞) (UniProt Q01974 34-943)
T2 construct: Whole endogenous protein in cell lysate, used for immunoprecipitation; also called endogenous ROR2 protein of ROR2-positive 293T cells
Assay: immunoprecipitation from 293T cell lysate, blot with Santa Cruz ROR2 antibody sc-374174

T2 sequence (Q01974 34-943 limits assumed): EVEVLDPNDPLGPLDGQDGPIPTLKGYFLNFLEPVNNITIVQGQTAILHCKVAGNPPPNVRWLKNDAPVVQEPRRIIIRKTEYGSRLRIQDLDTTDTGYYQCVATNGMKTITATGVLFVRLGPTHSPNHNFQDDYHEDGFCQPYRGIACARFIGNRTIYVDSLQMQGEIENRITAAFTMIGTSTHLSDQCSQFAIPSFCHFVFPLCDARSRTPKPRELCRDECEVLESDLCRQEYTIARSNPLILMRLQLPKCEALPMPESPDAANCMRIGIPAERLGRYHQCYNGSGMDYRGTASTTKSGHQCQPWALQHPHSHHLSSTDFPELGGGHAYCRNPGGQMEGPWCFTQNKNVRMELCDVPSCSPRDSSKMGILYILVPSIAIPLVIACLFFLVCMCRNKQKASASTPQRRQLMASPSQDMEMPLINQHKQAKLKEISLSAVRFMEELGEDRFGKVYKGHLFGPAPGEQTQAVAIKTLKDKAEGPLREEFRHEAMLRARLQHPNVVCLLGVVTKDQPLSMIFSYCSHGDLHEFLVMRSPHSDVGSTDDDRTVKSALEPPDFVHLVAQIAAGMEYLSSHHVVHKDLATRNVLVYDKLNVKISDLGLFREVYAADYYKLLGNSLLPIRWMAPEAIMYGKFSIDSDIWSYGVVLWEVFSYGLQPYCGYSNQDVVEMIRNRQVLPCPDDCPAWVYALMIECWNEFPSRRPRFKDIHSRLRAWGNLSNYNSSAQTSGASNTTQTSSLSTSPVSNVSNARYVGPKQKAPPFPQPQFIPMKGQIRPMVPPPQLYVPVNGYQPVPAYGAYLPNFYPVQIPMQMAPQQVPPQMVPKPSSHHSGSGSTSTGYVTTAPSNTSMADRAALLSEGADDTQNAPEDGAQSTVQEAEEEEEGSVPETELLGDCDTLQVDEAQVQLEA

Question: Does B1 bind?
Answer: Result: binds

Question: Does B2 bind?
Answer: Result: binds

Question: Does B3 bind?
Answer: Result: binds

Target: T3, ROR2膜蛋白 (UniProt Q01974 34-943, limits assumed)
T3 construct: whole, on cells; Endogenous ROR2 of T47D cells and of cells from human patients; also called ROR2 on T47D cells; ROR2 on patient blood cancer cells and lymphoma PDX tumour cells
Assay: flow cytometry on T47D cells (ROR2 positive) against 231 cells (ROR2 negative), 10ug/ml

T3 sequence (Q01974 34-943 limits assumed): as above

Question: Does B1 bind?
Answer: Result: binds

Question: Does B2 bind?
Answer: Result: binds

Question: Does B3 bind?
Answer: Result: binds
